The text below walks through data of patent publication US20240002497A1.

Assay [1] addresses rhNav1.7α + β1-β2-β3 (rhesus monkey). The assay is described as follows: competition FACS IC50 with 50 µM human SA against without.
The target of assay [2] is huNav1.7α + β1-β2-β3 (human) (UniProt Q15858). Described as above.
Another assay deals with huNav1.7α + β1 (human) (UniProt Q15858). The assay is described as follows: cell-based or functional assay.
For assay [3], the target named is rhNav1.7α + β1-β2-β3 (rhesus monkey). Put plainly: cell-based or functional assay.
Assay [4] shares this target. Put plainly: competition FACS vs EC25 of 275B05(N93R), CHO FlpIn, + 50 µM human SA.
The target in assay [5] is huNav1.7α + β1-β2-β3 (human) (UniProt Q15858). The assay is described as above.
For assay [6], the target named is rhNav1.7α + β1-β2-β3 (rhesus monkey). The assay is described as follows: competition FACS vs EC25 of 275B05(N93R), CHO FlpIn.
Assay [7] addresses huNav1.7α + β1-β2-β3 (human) (UniProt Q15858). The description is as above.

B1: F010301555 (bispecific antibody, part only; not given: Anti-albumin building block, part only)
chain, part: DVQLVESGGGLVQPGGSLRLSCAASGPVFNINSMAWYRRAPGKQRELVAYSTPGWDWNYADSVKGRFTISRDNAKRVYLQMNSLTPEDTAVYYCRWLLQPSIYDISRTYWGQGTLVTVSSGGGGSGGGS
Take B1: the Human SA ratio turned out to be 10 in assay [1] and 8 in assay [2]. The Human SA ratio of QPatch IC50 (with huNav1.7α + β1 (human); in assay [3]) was 7 in each case. The results for the QPatch electrophysiology IC50 [M], HEK cells (in the assay with huNav1.7α + β1 (human); in assay [3]) were 4.7e-08 M and 3.5e-08 M, respectively. The values for the QPatch electrophysiology IC50 [M], HEK cells, + 10 µM human SA (with huNav1.7α + β1 (human); in assay [3]) were 3.4e-07 M and 2.6e-07 M, respectively. Also, the IC50 was 880 nM in assay [4], 1200 nM in assay [5], 92 nM in assay [6] and 140 nM in assay [7].

One may read the IC50 as the concentration at which inhibition is half-maximal.
